The assay concerns the target GRASP65-homologue protein 1 (Grh1) (S. cerevisiae) (UniProt Q04410). The assay is described as follows: circular dichroism + electron paramagnetic resonance.

The record followed here is publication doi:10.1101/2023.12.19.572348.

UniProt Q04410, sequence (Q04410 whole entry): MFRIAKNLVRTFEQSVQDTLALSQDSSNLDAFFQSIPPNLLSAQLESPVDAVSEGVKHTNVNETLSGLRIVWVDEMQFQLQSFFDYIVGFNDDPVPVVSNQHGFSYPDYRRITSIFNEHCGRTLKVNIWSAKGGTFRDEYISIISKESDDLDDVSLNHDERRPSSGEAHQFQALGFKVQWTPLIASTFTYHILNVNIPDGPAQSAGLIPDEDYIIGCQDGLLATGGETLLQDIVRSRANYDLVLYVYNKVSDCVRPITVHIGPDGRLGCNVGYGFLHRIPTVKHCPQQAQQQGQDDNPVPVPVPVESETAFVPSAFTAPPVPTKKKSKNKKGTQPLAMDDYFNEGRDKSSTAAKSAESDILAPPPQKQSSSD

As to “Acyl-CoA Binding Protein 1 (ACBP) (from UniProt P31787 1-87) (natural protein)”, the Kd was greater than 1000 µM.
